Experimental data: patent publication US20260109758A1 (BIOSION, published 2026)
Read-outs that look alike come from different tables or passages of the source.

Columns and labels:
[1] = molecular target: T1, recombinant human TSLP-his (human, UniProt Q969D9 29-159, biotin-labeled in the ELISAs); assay: capture ELISA: antibody captured on anti-human IgG Fc F(ab')2, biotin human TSLP-his, SA-HRP
T1 construct: In-house made; not shown: His tag at the C-terminus
Protocol: (§1) Briefly, 96-well micro plates were coated with 100 μL 2 μg/mL AffiniPure F(ab′)₂ Fragment Goat Anti-Human IgG, Fey fragment specific (Jackson Immuno Research, Cat #109-006-008) in PBS and incubated overnight at 4° C. Plates were washed 4 times with wash buffer (PBS+0.05% Tween-20, PBST) and then blocked with 200 μL/well blocking buffer (5% w/v non-fatty milk in PBST) for 2 hours at 37° C. […] After the final wash, the plates were incubated with 100 μL/well TMB (Innoreagents). The reaction was stopped 15 minutes later at room temperature with 50 μL/well 1M H₂SO₄, and the absorbance of each well was read on a microplate reader using dual wavelength mode with 450 nm for TMB and 630 nm as the reference wavelength. The OD (450-630) values were plotted against antibody concentration. Data was analyzed using Graphpad Prism and EC₅₀ values were reported.

[2] = molecular target: T1, recombinant human TSLP-his; assay: as above; remark: listed apart in the source
Protocol: as §1

[3] = molecular target: T1, recombinant human TSLP-his; assay: SPR Biacore; TSLP-his amine-coupled to CM5 chip, antibody as analyte; 1:1 Langmuir fit
Protocol: Un-reacted moieties on the biosensor surface were blocked with ethanolamine. Then, serially diluted purified bispecific antibodies and the controls (2-fold serial dilution in HBS-EP⁺ buffer starting at 100 nM) were respectively flowed onto the chip at a flow rate of 30 μL/min. The antigen-antibody association kinetics was followed for 4 minutes and the dissociation kinetics was followed for 13 minutes.

EC50 [1]: 0.0487 nM
EC50 [2]: 0.0511 nM
Kd [3]: < 0.0157 nM
koff [3]: < 1e-05 s⁻¹
kon [3]: 636000 M⁻¹ s⁻¹
B1: hu1C5F12E9-V8(IgG1) (antibody)
heavy: QVQLVQSGAEVKKPGASVKVSCKASGYTFTTYWMHWVRQAPGQGLEWMGVIDPSDSDTTYNQKFKGRVTMTRDTSTSTVYMELSSLRSEDTAVYYCTRSLDGYYDYWGQGTLVTVSSASTKGPSVFPLAPSSKSTSGGTAALGCLVKDYFPEPVTVSWNSGALTSGVHTFPAVLQSSGLYSLSSVVTVPSSSLGTQTYICNVNHKPSNTKVDKKVEPKSCDKTHTCPPCPAPEAQGGPSVFLFPPKPKDTLYITREPEVTCVVVDVSHEDPEVKFNWYVDGVEVHNAKTKPREEQYNSTYRVVSVLTVLHQDWLNGKEYKCQVSNKALPAPIEKTISKAKGQPREPQVYTLPPSRDELTKNQVSLTCLVKGFYPSDIAVEWESNGQPENNYKTTPPVLDSDGSFFLYSKLTVDKSRWQQGNVFSCSVMHEALHNHYTQKSLSLSPG
light: DIQMTQSPSSLSASVGDRVTITCRPTENIYSYLAWYQQKPGKAPKLLIYFARTLAEGVPSRFSGSGSGTDFTLTISSLQPEDFATYYCQHHYGTPWTFGGGTKVEIKRTVAAPSVFIFPPSDEQLKSGTASVVCLLNNFYPREAKVQWKVDNALQSGNSQESVTEQDSKDSTYSLSSTLTLSKADYEKHKVYACEVTHQGLSSPVTKSFNRGEC
notes: Monospecific control, full-length IgG1; also called anti-TSLP hu1C5F12E9-V8
